# Measurements as given in patent US20130136748A1 (Ablynx, published 2013).
# Several values for one entry are separate records, joined by “and”; a condition that tells them apart may be missing. Equal entries are not always repeated.
# T1: cHER3ECD (Maccaca fascicularis HER3 extracellular domain) (Macaca fascicularis, UniProt P21860 20-643 (human entry))
# T1 construct: also called cyno HER3ECD; cyno HER3-ECD
# T1 chain: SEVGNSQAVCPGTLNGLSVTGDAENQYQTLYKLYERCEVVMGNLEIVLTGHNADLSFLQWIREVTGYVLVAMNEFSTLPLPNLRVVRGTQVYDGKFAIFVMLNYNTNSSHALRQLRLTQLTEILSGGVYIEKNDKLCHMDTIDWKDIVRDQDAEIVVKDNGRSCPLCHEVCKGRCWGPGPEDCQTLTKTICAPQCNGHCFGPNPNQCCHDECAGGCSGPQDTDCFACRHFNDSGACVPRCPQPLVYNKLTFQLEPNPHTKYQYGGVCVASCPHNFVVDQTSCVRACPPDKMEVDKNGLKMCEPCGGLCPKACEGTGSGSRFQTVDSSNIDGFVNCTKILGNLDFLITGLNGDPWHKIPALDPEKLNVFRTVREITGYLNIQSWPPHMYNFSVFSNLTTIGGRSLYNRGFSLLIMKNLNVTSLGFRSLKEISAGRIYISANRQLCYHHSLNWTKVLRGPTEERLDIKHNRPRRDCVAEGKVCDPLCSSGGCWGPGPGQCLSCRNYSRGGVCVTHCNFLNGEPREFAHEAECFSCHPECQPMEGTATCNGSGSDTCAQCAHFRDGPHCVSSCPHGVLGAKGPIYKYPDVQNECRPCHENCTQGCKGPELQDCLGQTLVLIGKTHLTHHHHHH
# B1: 34C07 (VHH)
# VHH: EVQLVESGGGLVQPGGSLGLSCVASGSIFRINAMAWYRQAPGKQRELVAEITAGGSTNYADSVKGRFTISVDNAWNTLYLQMNSLKVEDTAVYYCNLDHYTTWDRRSAYWGQGTQVTVSS
# notes: c-myc, His6-tagged form as expressed; also called 34C7; HER3MS34C07
# Assays:
# hHER3 full length [1] = biological target: T2, hHER3 full length (human, UniProt P21860 20-1342); experiment: FACS, 400 nM, competitor 23F05-biotin
# T2 construct: On transfected CHO, CHO HER2/HER3, CHO EGFR/HER3 or CHO Flp-In cells; endogenous HER3 of MCF-7 and MDA-MB468 cells in the signalling assays; also called human HER3
# [2] = biological target: T3, human HER3-Fc (R&D Systems, 348-RB) (human, UniProt P21860 20-643); experiment: 34C07 competition alphascreen
# T3 construct: Bought; also called hHER3-Fc; Fc-HER3; Fc part of the bought chimera not given, not described
# hHER3 full length [3] = biological target: T2, hHER3 full length; experiment: cell-based or functional assay
# hHER3 full length [4] = biological target: T2, hHER3 full length; experiment: FACS, 400 nM, competitor 21B02-biotin
# hHER3 full length [5] = biological target: T2, hHER3 full length; experiment: FACS, 400 nM, competitor 04C07-biotin
# hHER3 full length [6] = biological target: T2, hHER3 full length; experiment: FACS, 400 nM, competitor 17C08-biotin
# [7] = biological target: T1, cHER3ECD (Maccaca fascicularis HER3 …); experiment: ELISA, coated cHER3-ECD
# [8] = biological target: T3, human HER3-Fc (R&D Systems, 348-RB); experiment: HRG competition alphascreen
# hHER3 full length [9] = biological target: T2, hHER3 full length; experiment: FACS, 400 nM, competitor 18E08-biotin
# [10] = biological target: T4, hHER3 ECD (human HER3 extracellular domain) (human, UniProt P21860 20-643); experiment: ELISA, coated hHER3-ECD
# T4 construct: also called recombinant HER3-ECD
# [11] = biological target: T4, hHER3 ECD (human HER3 extracellular …); experiment: SPR off rate on HER3-ECD
# [12] = biological target: T3, human HER3-Fc (R&D Systems, 348-RB); experiment: SPR, HER3-Fc captured; heterogenous curve, main interaction (84%)
# hHER3 full length [13] = biological target: T2, hHER3 full length; experiment: FACS, 400 nM, competitor 04F10-biotin
# hHER3 full length [14] = biological target: T2, hHER3 full length; experiment: cell-based or functional assay; remark: listed apart in the source
# hHER3 full length [15] = biological target: T2, hHER3 full length; experiment: cell-based or functional assay; remark: listed apart in the source
# [16] = biological target: T4, hHER3 ECD (human HER3 extracellular …); experiment: off rate on recombinant HER3-ECD, periplasmic extract
binder,measurement,setting,value
B1,% competition,hHER3 full length [1],10%
same,IC50,[2],5500 pM
same,"IC50 pHER3 blocking, MCF7",hHER3 full length [3],2.49e-08 M
same,% competition,hHER3 full length [4],6%
same,% competition,hHER3 full length [5],0%
same,% competition,hHER3 full length [6],56%
same,EC50,[7],430 pM
same,% inhibition,[8],65.2%
same,IC50,[8],815 pM
same,% competition,hHER3 full length [9],99%
same,EC50,[10],460 pM
same,koff,[11],0.0003 s⁻¹ and 0.00031 s⁻¹
same,Kd,[12],14000 pM
same,kon,[12],18000 M⁻¹ s⁻¹
same,% competition,hHER3 full length [13],0%
same,"IC50, HRG1-β1 induced pHER3, MCF-7",hHER3 full length [14],1.89e-08 M
same,"IC50, HRG1-β1 induced pHER3, MDA-MB468",hHER3 full length [14],1.07e-08 M
same,"IC50, HRG1-β1 induced pAkt, MCF-7",hHER3 full length [15],4.99e-08 M
same,"IC50, HRG1-β1 induced pERK1/2, MCF-7",hHER3 full length [15],1e-07 M
same,koff,[16],0.00037 s⁻¹ and 0.00039 s⁻¹
